Reference: the supplement of paper PMC10126150
± gives the standard deviation of the averaged measurements.

Tested on: ATP
Test: switch fluorescence ratio, 500 uM ATP over buffer (Cy3 cluster intensity, sum of 5 cycles each) (fold (ratio)); higher = stronger signal-on switching upon ATP binding; sequences stand for … in TCGTCGGCAGCGTCAGATGTGTATAAGAGACAGTTTTTTTTTTTTTTTTTTTTTTTTT…TC
Conditions: aptamer strand: ATP DNA aptamer (quencher-CACCTGGGGGAGTATTGCGGAGGAAGG + anchor), 100 nM annealed; ATP concentration: 500 uM
In short: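 Clusters carrying Cy3-labelled switching strands on a modified Illumina MiSeq flow-cell were annealed to 100 nM quencher-labelled ATP aptamer and imaged in selection buffer. They were imaged again after 15 min with 500 uM ATP at 22 °C, over five buffer/ATP cycles with NaOH stripping and re-annealing in between. For each cluster, the fluorescence ratio is the summed Cy3 intensity of the target cycles divided by that of the buffer cycles, averaged per switch-domain sequence. Clusters outside 100-1000 RFU were left out.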
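Note: ATP exposure 15 min at 22 °C before imaging.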

For TCAGTTTTTT, the switch fluorescence ratio was 0.999 ± 0.035.
TCATAAACTT showed a switch fluorescence ratio of 1.09 ± 0.058.
In the case of TCATACGGTA, the switch fluorescence ratio is reported as 1.179 ± 0.005.
Work on TCATACTTTT yielded a switch fluorescence ratio of 1.01 ± 0.026.
For TCATAGACGG, the switch fluorescence ratio was 0.987 ± 0.021.
With TCATAGTATG the switch fluorescence ratio was 0.982 ± 0.04.
For TCATATAATA, the switch fluorescence ratio was 1.01 ± 0.018.
TCATCATTTT showed a switch fluorescence ratio of 0.996 ± 0.0019.
TCATCCGTTT showed a switch fluorescence ratio of 1.13 ± 0.15.
TCATCGTGCC gave a switch fluorescence ratio of 0.99 ± 0.032.
With TCATGAGCCA the switch fluorescence ratio was 1.04 ± 0.025.
TCATGCAACG showed a switch fluorescence ratio of 1.06 ± 0.06.
In the case of TCATGCAGAT, the switch fluorescence ratio is reported as 1.02 ± 0.056.
TCATGGCACG gave a switch fluorescence ratio of 1.02 ± 0.019.
In the case of TCATGGGCGC, the switch fluorescence ratio is reported as 1.01 ± 0.014.
TCATGGGGCG showed a switch fluorescence ratio of 0.993 ± 0.012.
For TCATGTACGT, the switch fluorescence ratio was 1.06 ± 0.028.
In the case of TCATGTTATG, the switch fluorescence ratio is reported as 0.971 ± 0.065.
TCATGTTGCT showed a switch fluorescence ratio of 1.01 ± 0.025.
TCATGTTGGA gave a switch fluorescence ratio of 0.977 ± 0.02.
With TCATTAAGTT the switch fluorescence ratio was 1.08 ± 0.094.
TCATTAGCCT was tested, and the switch fluorescence ratio was 1.08 ± 0.019.
TCATTAGCTT was tested, and the switch fluorescence ratio was 0.991 ± 0.012.
With TCATTCTTTA the switch fluorescence ratio was 1.01 ± 0.019.
For TCATTGATTT, the switch fluorescence ratio was 0.978 ± 0.022.
TCATTGGACT showed a switch fluorescence ratio of 0.98 ± 0.023.
For TCATTGTAAC, the switch fluorescence ratio was 1.06 ± 0.023.
Sequence TCATTGTTTT has a switch fluorescence ratio of 1.01 ± 0.019.
With TCATTTATAT the switch fluorescence ratio was 0.98 ± 0.047.
For TCATTTCAGC, the switch fluorescence ratio was 1.03 ± 0.011.
For TCATTTCAGG, the switch fluorescence ratio was 1.01 ± 0.012.
TCATTTGGAT gave a switch fluorescence ratio of 1 ± 0.023.
For TCATTTGGGG, the switch fluorescence ratio was 0.975 ± 0.024.
With TCATTTTAGT the switch fluorescence ratio was 0.99 ± 0.026.
For TCATTTTCGG, the switch fluorescence ratio was 0.986 ± 0.025.
Work on TCATTTTGAA yielded a switch fluorescence ratio of 1.01 ± 0.0012.
TCCAAAATTT gave a switch fluorescence ratio of 0.976 ± 0.013.
TCCAACGGGT showed a switch fluorescence ratio of 1.03 ± 0.059.
In the case of TCCAAGACGA, the switch fluorescence ratio is reported as 1.34 ± 0.23.
With TCCAAGAGGG the switch fluorescence ratio was 1.01 ± 0.031.
TCCAAGGCTT was tested, and the switch fluorescence ratio was 1.038 ± 0.0014.
For TCCAATTTGA, the switch fluorescence ratio was 0.998 ± 0.012.
Sequence TCCACCGA has a switch fluorescence ratio of 1.04 ± 0.017.
TCCACGGTCT was tested, and the switch fluorescence ratio was 1.0273 ± 0.00046.
With TCCAGATCAT the switch fluorescence ratio was 0.993 ± 0.018.
With TCCAGATGGA the switch fluorescence ratio was 0.977 ± 0.037.
TCCAGATTCT was tested, and the switch fluorescence ratio was 0.9828 ± 0.0086.
Sequence TCCAGGAGGG has a switch fluorescence ratio of 1.025 ± 0.0075.
TCCAGGAGTG was tested, and the switch fluorescence ratio was 1.15 ± 0.019.
TCCAGGGAAT gave a switch fluorescence ratio of 1.04 ± 0.029.
With TCCAGGGGCA the switch fluorescence ratio was 1.67 ± 0.1.
In the case of TCCAGTAATA, the switch fluorescence ratio is reported as 1.17 ± 0.19.
Work on TCCAGTAGTT yielded a switch fluorescence ratio of 0.982 ± 0.024.
Work on TCCATAGGGG yielded a switch fluorescence ratio of 1.53 ± 0.88.
In the case of TCCATCGCTT, the switch fluorescence ratio is reported as 1.6 ± 0.79.
Work on TCCATCTGGG yielded a switch fluorescence ratio of 1.01 ± 0.032.
TCCATCTTTT gave a switch fluorescence ratio of 0.999 ± 0.014.
TCCATGACCC gave a switch fluorescence ratio of 1.01 ± 0.015.
TCCATGACGC was tested, and the switch fluorescence ratio was 1.099 ± 0.0088.
Sequence TCCATGATTG has a switch fluorescence ratio of 0.973 ± 0.037.
For TCCATTCATA, the switch fluorescence ratio was 1.01 ± 0.023.
TCCATTTGGA gave a switch fluorescence ratio of 1.02 ± 0.052.
TCCCAACGGG gave a switch fluorescence ratio of 1.011 ± 0.0036.
In the case of TCCCCAATTT, the switch fluorescence ratio is reported as 1.13 ± 0.12.
TCCCCAGCAC was tested, and the switch fluorescence ratio was 3.1 ± 2.7.
TCCCCCTGTT gave a switch fluorescence ratio of 1.01 ± 0.013.
In the case of TCCCCGGGCA, the switch fluorescence ratio is reported as 0.995 ± 0.04.
Sequence TCCCCGGTCA has a switch fluorescence ratio of 1.09 ± 0.15.
In the case of TCCCCTCGGC, the switch fluorescence ratio is reported as 1.08 ± 0.046.
For TCCCCTTTTT, the switch fluorescence ratio was 1.04 ± 0.015.
TCCCGATTTC showed a switch fluorescence ratio of 1.07 ± 0.024.
In the case of TCCCGCTTGT, the switch fluorescence ratio is reported as 1.17 ± 0.028.
Work on TCCCGTTTGA yielded a switch fluorescence ratio of 1.01 ± 0.016.
TCCCTCAGGG was tested, and the switch fluorescence ratio was 1.46 ± 0.078.
For TCCCTGTTTT, the switch fluorescence ratio was 0.991 ± 0.016.
In the case of TCCGAAGGGT, the switch fluorescence ratio is reported as 0.991 ± 0.045.
TCCGAAGGTA showed a switch fluorescence ratio of 1.07 ± 0.025.
TCCGACGGTT was tested, and the switch fluorescence ratio was 3.31 ± 0.46.
With TCCGATTTAT the switch fluorescence ratio was 0.989 ± 0.026.
In the case of TCCGCGGGGA, the switch fluorescence ratio is reported as 1.52 ± 0.59.
With TCCGCGGGTT the switch fluorescence ratio was 1.14 ± 0.2.
Work on TCCGCTTGA yielded a switch fluorescence ratio of 1.58 ± 0.047.
In the case of TCCGGCGTGC, the switch fluorescence ratio is reported as 1.13 ± 0.23.
With TCCGGGGCAG the switch fluorescence ratio was 1.262 ± 0.0072.
TCCGGGGGGG was tested, and the switch fluorescence ratio was 1.06 ± 0.094.
TCCGGGGGTG gave a switch fluorescence ratio of 1.09 ± 0.13.
Work on TCCGGTGTTT yielded a switch fluorescence ratio of 1.081 ± 0.0036.
Sequence TCCGGTTGTC has a switch fluorescence ratio of 1.11 ± 0.036.
Work on TCCGTCACTA yielded a switch fluorescence ratio of 1.438 ± 0.0074.
For TCCTACTACG, the switch fluorescence ratio was 1.08 ± 0.026.
With TCCTAGGCGT the switch fluorescence ratio was 1.06 ± 0.12.
In the case of TCCTAGGGGT, the switch fluorescence ratio is reported as 2.44 ± 1.2.
For TCCTAGGTCT, the switch fluorescence ratio was 1.009 ± 0.0029.
For TCCTAGTTGA, the switch fluorescence ratio was 1.024 ± 0.0012.
In the case of TCCTATACTA, the switch fluorescence ratio is reported as 1.035 ± 0.0094.
TCCTATTGTG showed a switch fluorescence ratio of 1.03 ± 0.042.
TCCTCGAGTA was tested, and the switch fluorescence ratio was 1.27 ± 0.027.
With TCCTGAGTTA the switch fluorescence ratio was 0.996 ± 0.011.
For TCCTGCAGGA, the switch fluorescence ratio was 1.03 ± 0.014.
For TCCTGCCTTA, the switch fluorescence ratio was 1.0991 ± 0.00051.
Sequence TCCTGCGGGG has a switch fluorescence ratio of 1.12 ± 0.12.
In the case of TCCTGGAGGA, the switch fluorescence ratio is reported as 0.989 ± 0.05.
Work on TCCTGGGCGG yielded a switch fluorescence ratio of 1.077 ± 0.0028.
Sequence TCCTGGGGGG has a switch fluorescence ratio of 1.04 ± 0.046.
For TCCTGGGTGT, the switch fluorescence ratio was 2.23 ± 0.12.
In the case of TCCTTATTGG, the switch fluorescence ratio is reported as 1 ± 0.0068.
TCCTTCAAAG was tested, and the switch fluorescence ratio was 1.08 ± 0.085.
In the case of TCCTTCGGCG, the switch fluorescence ratio is reported as 1.3 ± 0.078.
For TCCTTCTCTT, the switch fluorescence ratio was 1.05 ± 0.021.
TCCTTTAAGG showed a switch fluorescence ratio of 1.025 ± 0.003.
With TCCTTTAATC the switch fluorescence ratio was 1.98 ± 1.4.
TCCTTTACTG gave a switch fluorescence ratio of 0.9779 ± 0.0072.
TCCTTTAGCC was tested, and the switch fluorescence ratio was 1.23 ± 0.015.
TCCTTTGGTC showed a switch fluorescence ratio of 0.987 ± 0.022.
With TCGAAAACAG the switch fluorescence ratio was 0.961 ± 0.0078.
In the case of TCGAAAGTGT, the switch fluorescence ratio is reported as 1 ± 0.025.
With TCGAAATTCG the switch fluorescence ratio was 1.02 ± 0.019.
In the case of TCGAACTGAT, the switch fluorescence ratio is reported as 1.02 ± 0.03.
TCGAAGGATA was tested, and the switch fluorescence ratio was 0.992 ± 0.011.
With TCGAAGGGGG the switch fluorescence ratio was 1.1 ± 0.16.
Work on TCGAATGGCT yielded a switch fluorescence ratio of 1 ± 0.044.
TCGAATGT gave a switch fluorescence ratio of 1.01 ± 0.012.
TCGAATGTGC gave a switch fluorescence ratio of 0.989 ± 0.022.
Sequence TCGACACTGA has a switch fluorescence ratio of 1.058 ± 0.0022.
In the case of TCGACCTAAT, the switch fluorescence ratio is reported as 1.077 ± 0.01.
TCGACGATTC gave a switch fluorescence ratio of 1.52 ± 0.14.
For TCGACTCAGG, the switch fluorescence ratio was 1.05 ± 0.028.
Sequence TCGACTGAGG has a switch fluorescence ratio of 1.03 ± 0.031.
TCGACTGTTT showed a switch fluorescence ratio of 1.03 ± 0.018.
With TCGAGAATGT the switch fluorescence ratio was 0.984 ± 0.014.
TCGAGAGGGA showed a switch fluorescence ratio of 1 ± 0.047.
TCGAGATAGA showed a switch fluorescence ratio of 1.1 ± 0.11.
For TCGAGATTAG, the switch fluorescence ratio was 0.9942 ± 0.0086.
With TCGAGCATCA the switch fluorescence ratio was 1.143 ± 0.01.
TCGAGCTTGT gave a switch fluorescence ratio of 1 ± 0.024.
For TCGAGGAATC, the switch fluorescence ratio was 1.075 ± 0.0094.
In the case of TCGAGGGCGG, the switch fluorescence ratio is reported as 0.98 ± 0.032.
TCGAGGGGGC showed a switch fluorescence ratio of 1.07 ± 0.17.
For TCGAGTAGGG, the switch fluorescence ratio was 0.995 ± 0.016.
TCGAGTATCT gave a switch fluorescence ratio of 0.999 ± 0.019.
TCGAGTATTC gave a switch fluorescence ratio of 1.04 ± 0.013.
Sequence TCGAGTTGCA has a switch fluorescence ratio of 1 ± 0.033.
In the case of TCGAGTTTGG, the switch fluorescence ratio is reported as 1.01 ± 0.022.
With TCGATACGAT the switch fluorescence ratio was 0.994 ± 0.018.
For TCGATAGCTG, the switch fluorescence ratio was 0.935 ± 0.046.
Work on TCGATAGGGG yielded a switch fluorescence ratio of 0.98 ± 0.054.
TCGATATTGG was tested, and the switch fluorescence ratio was 1.02 ± 0.022.
In the case of TCGATCCCGA, the switch fluorescence ratio is reported as 1.017 ± 0.0072.
TCGATCGGGT showed a switch fluorescence ratio of 0.991 ± 0.035.
In the case of TCGATGGCGC, the switch fluorescence ratio is reported as 1.02 ± 0.023.
TCGATGGGGG was tested, and the switch fluorescence ratio was 0.942 ± 0.013.
For TCGATTCGGT, the switch fluorescence ratio was 1.02 ± 0.026.
In the case of TCGATTGTGG, the switch fluorescence ratio is reported as 1.02 ± 0.03.
